This assay deals with chondroitin sulfate proteoglycan 4 (CSPG4) (human) (UniProt Q6UVK1). Put plainly: cell-based or functional assay.
Sequence of UniProt Q6UVK1 (Q6UVK1 30-2322): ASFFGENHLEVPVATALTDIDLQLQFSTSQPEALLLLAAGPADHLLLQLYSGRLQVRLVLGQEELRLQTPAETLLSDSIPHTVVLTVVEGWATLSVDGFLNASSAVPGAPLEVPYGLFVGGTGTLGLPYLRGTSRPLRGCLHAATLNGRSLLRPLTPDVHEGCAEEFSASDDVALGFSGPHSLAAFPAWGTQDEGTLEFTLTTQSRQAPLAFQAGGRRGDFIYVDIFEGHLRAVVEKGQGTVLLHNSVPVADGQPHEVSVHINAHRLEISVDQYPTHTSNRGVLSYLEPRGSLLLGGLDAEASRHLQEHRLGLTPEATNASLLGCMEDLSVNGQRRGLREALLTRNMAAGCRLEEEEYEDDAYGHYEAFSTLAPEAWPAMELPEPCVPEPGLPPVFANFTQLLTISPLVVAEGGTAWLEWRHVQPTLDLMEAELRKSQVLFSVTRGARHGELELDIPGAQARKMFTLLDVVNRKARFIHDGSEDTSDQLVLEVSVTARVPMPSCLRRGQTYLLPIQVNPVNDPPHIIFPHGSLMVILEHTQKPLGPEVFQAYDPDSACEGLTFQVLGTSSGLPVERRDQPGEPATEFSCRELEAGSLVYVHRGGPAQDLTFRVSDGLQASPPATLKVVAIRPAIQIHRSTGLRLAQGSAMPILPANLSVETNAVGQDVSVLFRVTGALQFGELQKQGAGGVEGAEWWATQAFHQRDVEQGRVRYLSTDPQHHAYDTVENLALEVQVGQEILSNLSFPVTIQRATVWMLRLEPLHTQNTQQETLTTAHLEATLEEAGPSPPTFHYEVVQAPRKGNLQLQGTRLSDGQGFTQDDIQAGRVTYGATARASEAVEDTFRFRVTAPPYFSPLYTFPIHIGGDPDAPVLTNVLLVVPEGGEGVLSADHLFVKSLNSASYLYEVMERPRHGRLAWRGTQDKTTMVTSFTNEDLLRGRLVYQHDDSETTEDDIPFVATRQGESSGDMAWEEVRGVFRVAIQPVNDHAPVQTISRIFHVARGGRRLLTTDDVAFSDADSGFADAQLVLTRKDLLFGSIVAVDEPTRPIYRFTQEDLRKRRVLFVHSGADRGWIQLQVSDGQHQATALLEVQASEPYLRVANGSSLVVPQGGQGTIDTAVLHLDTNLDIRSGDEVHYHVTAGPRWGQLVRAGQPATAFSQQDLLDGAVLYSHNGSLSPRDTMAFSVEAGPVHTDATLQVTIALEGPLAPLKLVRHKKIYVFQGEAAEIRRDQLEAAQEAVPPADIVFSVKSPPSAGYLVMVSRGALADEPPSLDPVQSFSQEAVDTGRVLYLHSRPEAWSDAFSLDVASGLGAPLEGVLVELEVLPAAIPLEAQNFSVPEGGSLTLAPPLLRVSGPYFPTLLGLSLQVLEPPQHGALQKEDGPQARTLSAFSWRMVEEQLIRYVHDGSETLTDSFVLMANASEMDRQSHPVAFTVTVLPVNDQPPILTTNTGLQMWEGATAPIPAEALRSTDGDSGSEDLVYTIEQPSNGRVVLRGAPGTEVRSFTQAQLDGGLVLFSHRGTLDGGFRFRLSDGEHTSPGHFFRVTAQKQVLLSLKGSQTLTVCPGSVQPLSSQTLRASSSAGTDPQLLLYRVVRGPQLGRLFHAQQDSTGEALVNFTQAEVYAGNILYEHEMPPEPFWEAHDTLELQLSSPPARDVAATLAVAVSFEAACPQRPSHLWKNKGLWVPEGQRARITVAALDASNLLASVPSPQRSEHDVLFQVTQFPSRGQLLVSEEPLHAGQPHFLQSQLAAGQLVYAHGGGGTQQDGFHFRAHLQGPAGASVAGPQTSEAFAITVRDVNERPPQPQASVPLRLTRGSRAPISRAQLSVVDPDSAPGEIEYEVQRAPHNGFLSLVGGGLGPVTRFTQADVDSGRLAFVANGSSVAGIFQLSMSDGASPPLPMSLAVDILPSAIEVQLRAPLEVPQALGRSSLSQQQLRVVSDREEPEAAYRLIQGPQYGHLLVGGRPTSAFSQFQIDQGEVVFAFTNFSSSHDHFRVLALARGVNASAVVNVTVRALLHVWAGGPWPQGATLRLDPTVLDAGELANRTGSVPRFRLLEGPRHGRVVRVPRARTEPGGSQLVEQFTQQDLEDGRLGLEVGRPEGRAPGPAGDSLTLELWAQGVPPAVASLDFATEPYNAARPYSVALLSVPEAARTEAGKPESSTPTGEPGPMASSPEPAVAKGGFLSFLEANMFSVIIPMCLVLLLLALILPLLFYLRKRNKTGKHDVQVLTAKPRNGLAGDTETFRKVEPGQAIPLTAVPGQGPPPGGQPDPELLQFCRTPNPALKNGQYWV

B1: h763.74(#2)CD28 CAR (protein, not shown: large carriers)
chain: MDIKLTQSPSILSASVGDRVIITCRASQTIYKNLHWYQQKPHRSPRLLIKYGSDSISGIPSRFSGSGSGTEYTLTISSLQPDDFAIYYCLQGYSTPWTFGGGTKLTVLGGGGGSGGGGSGGGGSGGGGSQVQLVESGGGLVQPGGSLRLSCTASGYTFTDYSMHWVRKTPGKGLKWVGWINTATGEPTYADDFKGRFTISLDTSKNTVYLQMNSLRAEDTATYFCFSYYDYWGQGTTVTVSS
B1 yielded a residual tumor cells after coculture of CAR-T cells with CSPG4+ WM115 melanoma cells of 11%.

B2: 763.74(A)4-1BB CAR (protein, not shown: small tags and cut ends)
chain: MQVKLKESGPELKKPGETVKISCKASGYTFTDYSMHWVKKTPGKGLKWLGWINTATGEPTYADDFKGRFAISLETSARTVYLQINNLRNEDTATYFCFSYYDYWGQGTTVTVSSGGGGSGGGGSGGGGDIKLSQSPSILSVTPGETVSLSCRASQTIYKNLHWYQQKSHRSPRLLIKYGSDSISGIPSRFTGSGSGTDYTLNINSVKPEDQGIYYCLQGYSTPWTFGGGTKLEIK
Molecule B2 had a residual tumor cells after coculture of CAR-T cells with WM115 (CSPG4+) melanoma cells, E:T 1:5 of 43.6%.

B3: 763.74(A)CD28 CAR (protein, not shown: small tags and cut ends)
chain: B2 chain
Consider B3, for which the residual tumor cells after coculture of CAR-T cells with WM115 (CSPG4+) melanoma cells, E:T 1:5 is 2.2%.

B4: h763.74(#5)CD28 CAR (protein, not shown: large carriers)
chain: MEIVMTQSPSTLSASVGDRVIITCRASQTIYKNLHWYQQKPGKSPKLLIKYGSDSISGVPSRFSGSGSGTEYTLTISSLQPDDFATYYCLQGYSTPWTFGQGTKLTVLGGGGGSGGGGSGGGGSGGGGSQVQLVESGGGLVQPGGSLRLSCTASGYTFTDYSMHWVRKAPGKGLEWVGWINTATGEPTYADDFKGRFTISLDTSKNTVYLQMNSLRAEDTAVYFCASYYDYWGQGTLVTVSS
As for B4, the residual tumor cells after coculture of CAR-T cells with CSPG4+ WM115 melanoma cells turned out to be 10%.

Values taken from patent US20230242666A1.
